Substrate: O=C(CNc1ccccc1)[C@H](O)[C@H](O)COP(=O)(O)O
Test: discontinuous spectrophotometric assay of IGP formation (A278)
Format: biochemical, Pseudomonas aeruginosa
Conditions: 50 mM Tris-HCl, 4 mM MgCl2, 0.5 mM TCEP, pH 7.0, 25 °C, substrate made enzymatically in situ from aniline and PRPP, 2.5 μM enzyme

B1: PaIGPS (Pseudomonas aeruginosa PAO1) (protein)
chain: MSVPTVLQKILARKAEEVAERRARVNLAEVERLARSADAPRGFANALLERAKRKEPAVIAEIKKASPSKGVLREHFVPAEIARSYEAGGAACLSVLTDVDFFQGADAYLKEARAACALPVIRKDFMIDPYQIVEARAIGADCILLIVSALDDVLMAELAATAKSVGLDVLVEVHDGTELERALKTLDTPLVGINNRNLHTFEVSLETTLDLLPEIPRDRLVVTESGILNRADVELMEVSEVYAFLVGEAFMRADDPGLELKRLFFQERGAVVLGADPD
Question: For B1, which Km is on record?
Answer: The Km was 180 ± 50 µM.

Question: What about the kcat of the same protein?
Answer: The kcat was 0.00442 ± 0.000389 s⁻¹.
